Among the data in PMC4873975 (2016) are koff and Kd values, retold here.

Test [1] deals with T1, FcɛRIα (recombinant, soluble) (human, UniProt P12319 26-205).
T1 chain: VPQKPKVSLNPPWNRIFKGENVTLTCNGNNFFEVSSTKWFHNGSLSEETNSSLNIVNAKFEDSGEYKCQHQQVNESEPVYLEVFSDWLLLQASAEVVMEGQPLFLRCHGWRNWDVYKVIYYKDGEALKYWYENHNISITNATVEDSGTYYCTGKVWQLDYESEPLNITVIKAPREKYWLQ
In words: SPR; insect-derived IgE-Fc3-4. A general note: Surface plasmon resonance follows binding to a sensor surface in real time, without labels.

In test [2] the target is T1, FcɛRIα (recombinant, soluble). In words: SPR; insect-derived IgE-Fc3-4.
Test [3] shares this target. In words: SPR; mammalian-derived IgE-Fc3-4.
Test [4] has the same target. In words: SPR; mammalian-derived IgE-Fc3-4.
The target is the same in test [5]. In words: SPR; mammalian-derived.
For test [6] the target is unchanged. In words: SPR; mammalian-derived.

Changes are numbered by the printed parent chain. Numbers in names are those of the source.

B1: IgE-Fc3–4 (wild type) (domain or fragment)
chain: CADSNPRGVSAYLSRPSPFDLFIRKSPTITCLVVDLAPSKGTVNLTWSRASGKPVNHSTRKEEKQRNGTLTVTSTLPVGTRDWIEGETYQCRVTHPHLPRALMRSTTKTSGPRAAPEVYAFATPEWPGSRDKRTLACLIQNFMPEDISVQWLHNEVQLPDARHSTTQPRKTKGSGFFVFSRLEVTRAEWEQKDEFICRAVHEAASPSQTVQRAVSVNPGK
In general, koff refers to the first-order rate constant of dissociation. In general, Kd refers to a measure of binding affinity in units of concentration. With B1, the koff stood at 0.000946 s⁻¹ in test [1] and 0.00102 s⁻¹ in test [3]. The Kd stood at 660 pM in test [2] and 933 pM in test [4].

B2: IgE-R419N-Fc3–4 (domain or fragment)
chain: B1 chain with R92N
modifications: additional N-linked glycan at the site made by R419N (NVT)
For B2, the koff in test [5] was found to be 0.000773 s⁻¹. For the same molecule, the Kd in test [6] is 2260 pM.
